Reference: US20220306746A1 (CHINA MEDICAL UNIVERSITY HOSPITAL, published 2022)
Residue numbers refer to the chain shown, from its start.

B1: anti-PD-L1 nanobody clone #1 (VHH)
VHH: HVQLVESGGGLVQPGGSLRISCAASGFTFSSRAMSWVRQAPGKGLEWVSTINSDGSNTYYSDSVKDRFTISRDNAINTLYLQLNSLKTEDTAMYYCSRCPDIYCGGQYTYRGQGTQVTVSS
notes: Labelled with FITC for flow cytometry; also called PD-L1 nb
B2: anti-PD-L1 nanobody clone #67 (VHH)
VHH: B1 VHH with H1Q, I51V

Tests used:
[1] = target: T1, programmed cell death ligand 1 (PD-L1) on cells (UniProt Q9NZQ7 19-290, limits assumed); experiment: flow cytometry on H1975 cells, FITC-labelled nanobody 1 ng/ml [b]
T1 construct: whole, on cells; H1975, A549 and MDA-MB-231 are human tumour cell lines; also called PD-L1 aAPC/CHO-K1 cells
Experimental: In this example, the procedures of flow cytometric analysis of the anti-PD-L1 nanobody are as follows. The anti-PD-L1 nanobody (1 ng/ml) was pre-stained with FITC fluorescein by Fastlink Fluorescein Labeling Kit (Abnova), the procedures were performed according to the manual instructions. […] After washing with PBS, the cells were analyzed by flow cytometry using FL1 channel.

[2] = target: T1, programmed cell death ligand 1 (PD-L1) …; experiment: cell-based or functional assay

T1 sequence (Q9NZQ7 19-290 limits assumed): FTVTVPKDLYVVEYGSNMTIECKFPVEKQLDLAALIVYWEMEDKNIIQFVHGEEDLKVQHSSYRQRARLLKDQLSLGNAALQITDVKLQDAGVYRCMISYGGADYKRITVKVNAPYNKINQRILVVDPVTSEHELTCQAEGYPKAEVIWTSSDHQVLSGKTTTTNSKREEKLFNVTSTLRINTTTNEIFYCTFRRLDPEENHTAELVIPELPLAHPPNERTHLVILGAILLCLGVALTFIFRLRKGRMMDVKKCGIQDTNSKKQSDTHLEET

Binder	binding result [1]	EC50 (read off the curve) [2] [µg/mL]
B1	binds	
B2		~3
